Results taken from publication PMC10235969 (Proceedings of the National Academy of Sciences of the …, 2023).

T1: Drosophila melanogaster RMC1 (Drosophila melanogaster, UniProt Q9VRX1 1-642)
T1 sequence: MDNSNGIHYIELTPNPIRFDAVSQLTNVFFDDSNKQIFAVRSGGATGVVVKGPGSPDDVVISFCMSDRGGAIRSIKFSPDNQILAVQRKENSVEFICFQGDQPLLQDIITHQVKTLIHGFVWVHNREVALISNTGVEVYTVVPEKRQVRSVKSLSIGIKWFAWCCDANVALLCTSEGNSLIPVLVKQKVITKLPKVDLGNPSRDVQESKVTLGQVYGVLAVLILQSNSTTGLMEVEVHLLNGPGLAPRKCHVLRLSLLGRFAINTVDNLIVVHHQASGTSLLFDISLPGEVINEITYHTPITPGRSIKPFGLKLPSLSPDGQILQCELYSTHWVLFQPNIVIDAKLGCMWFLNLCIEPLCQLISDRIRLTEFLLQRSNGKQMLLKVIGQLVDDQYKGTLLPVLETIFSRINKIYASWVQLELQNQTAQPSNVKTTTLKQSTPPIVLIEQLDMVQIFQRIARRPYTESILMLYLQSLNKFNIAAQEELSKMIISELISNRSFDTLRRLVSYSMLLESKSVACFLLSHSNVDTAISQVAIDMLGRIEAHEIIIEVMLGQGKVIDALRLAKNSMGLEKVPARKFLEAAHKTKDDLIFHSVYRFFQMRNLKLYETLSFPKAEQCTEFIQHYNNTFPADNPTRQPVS

B1: Drosophila melanogaster Mon1 (natural protein)
chain: MEVEQTSVRSDTNSTCEYLDAEGDPESPNLYQEADPDQEAEQQNHSIISELRDGLGTMRDNSALSPEPGQENKGLAASVESLALSTSTSAKTEDSIGGGLEEEYDYQHDSLWQGQKKHIFILSEAGKPIFSLHGNEDKLATLFGVIQALVSFVQMGQDAITSIHAGGIKFAFMQRSSLILVAASRSNMSVQQLQLQLGDVYNQILSILTYSHMTKIFERRKNFDLRRLLSGSERLFYNLLANDSSSAKVSNNIFTFLTNSIRVFPLPTTIRSQITSAIQSNCSKIKNLVFAVLIANNKLIALVRMKKYSIHPADLRLIFNLVECSESFKSSENWSPICLPKFDMNGYLHAHVSYLADDCQACLLLLSVDRDAFFTLAEAKAKITEKLRKSHCLEAINEELQQPFNAKLYQQVVGIPELRHFLYKPKSTAQLLCPMLRHPYKSLTELERLEAIYCDLLHRIHNSSRPLKLIYEMKEREVVLAWATGTYELYAIFEPVVDKATVIKYVDKLIKWIEKEYDVYFIRNHATF
B2: Drosophila melanogaster Ccz1 (natural protein)
chain: MAKLLQRVEITLRSFYIFNSTFGQVEGEEHKKVLFYHPNDIELNTKIKDVGLSEAIIRFTGTFTSEDDCQALHTQKTTQLFYQPEPGYWLVLVLNVPKEVRLKEGVEVADYRGAEISDRIYRAILRQCYQMFRFQNGCFSSCGSEEPNPDKRRELLCQKLLQFYDQHLTNLRDPAQCDIIDMLHSIQYLPLDKTLFLRAQNFGTLCETFPDIKESIMLYQEQVLCGGKLSPEDLHCVHSYVVQHVLKVEASSSTIAVSPSLKRSISECQVGGFVRSRQKVAGDEHDAVNEEDHPMKVYVTLDKEAKPYYLLIYRALHITLCLFLNADQVAPKQDLYDDLHAYMAPQLTSLARDISSELTKEAVGAAGQDNSSGNSETAPKYLFINEQSLQHHTNFQRHLPQGLPRNVLSIIADLANGSGKAEMESAPAEEVQVKTTNDYWIVKRRCNYRQYYVILCNSKATLLDVTQEARRIFEQELTDDVFFDK

Columns and labels:
[1] = target: T1, Drosophila melanogaster RMC1; experiment: cryo-EM structure
[2] = target: B1; experiment: cryo-EM structure

| Binder | binding result [1] | binding result [2] |
| --- | --- | --- |
| B1 | binds | – |
| B2 | binds | binds |
